Experimental data as given in patent US20240343802A1.

Target: CD3 on CD3-expressing T cells (Jurkat, HPB-ALL) (UniProt P07766)
Assay: FACS, HBP-ALL T cells
Parameters: Bmax: unit not given here

- Bmax: 13300
- Kd: 0.461 nM
Substance: OKT3 (commercial anti-CD3 antibody)
